In patent publication US20230272097A1 (PETMEDIX, published 2023):

T1: canine OX40L, full length membrane form, expressed on the cell surface (HEK293 or MEF cells stably … (canine (dog, beagle)))
T1 construct: The same protein is used on HEK293 and on MEF cells; also called HEK-OX40L; OX40L expressing HEK293 cells
T1 chain: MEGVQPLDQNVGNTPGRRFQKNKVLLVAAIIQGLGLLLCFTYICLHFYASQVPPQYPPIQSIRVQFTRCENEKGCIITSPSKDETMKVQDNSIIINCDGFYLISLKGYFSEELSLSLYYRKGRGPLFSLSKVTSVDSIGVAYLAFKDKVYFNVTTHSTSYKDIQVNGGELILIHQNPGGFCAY

T2: OX40L ECD-TNCc-HIS protein (trimeric soluble canine OX40L extra cellular domain probe, HIS tagged) (canine; chicken, UniProt P10039 110-139, limits assumed)
T2 construct: domain: trimerization domain; also called HIS tagged trimeric OX40L protein; not shown: HIS tag
T2 sequence: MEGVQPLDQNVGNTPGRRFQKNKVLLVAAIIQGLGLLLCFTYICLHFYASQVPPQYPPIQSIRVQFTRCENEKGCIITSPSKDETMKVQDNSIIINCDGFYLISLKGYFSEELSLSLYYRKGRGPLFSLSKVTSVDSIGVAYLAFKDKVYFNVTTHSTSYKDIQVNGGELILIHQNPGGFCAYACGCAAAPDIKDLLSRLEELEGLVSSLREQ


How the values were obtained:
[1] = target: T1, canine OX40L, full length membrane …; assay: flow cytometry titration on HEK cells expressing OX40L; Kd (EC50) from GeoMean vs concentration, Prism four parameter fit
Experimental: FIG. 10. Affinity determination for antibodies that bind OX40L on HEK cells expressing OX40L. Graphs are generated by plotting GeoMean arbitrary units (AU) against Log₁₀ [concentration]. Kd (EC₅₀) was calculated using Prism.
(§1) Specific binding to cells expressing OX40L is confirmed by purifying mAb from the CHO supernatant using protein A resin (MabSelect, Cytiva). In brief, MabSelect resin is washed in PBS and diluted to have a 10% slurry. An appropriate volume of the 10% slurry is added to the supernatant and incubated 5-10′ at RT before being loaded into a filter column. After 3 washes with PBS the antibodies are eluted using IgG elute buffer (Pierce) directly into neutralisation buffer (10 mM TRIS pH8.0), 8:1 IgG elute: neutralisation buffer ratio. Antibody solutions are quantified measuring absorbance at 280 nm, using a Nanodrop One (Thermo Fisher). Serial 1:3 dilutions of purified antibodies ranging from 6.6 μM to 66 pM are prepared in FACS buffer and are used to stain HEK293 or MEF cells (or any other commonly used cell lines) expressing canine OX40L.

[2] = target: T2, OX40L ECD-TNCc-HIS protein (trimeric …); assay: SPR exp 2, Biacore 8K, OX40L ECD-TNCc-HIS amine coupled to CM5 chip, antibody as analyte, Kd at equilibrium
Description: (§2) To determine affinity by SPR (Biacore 8K, Cytivia), purified OX40L ECD-TNCc-HIS protein is covalently bound at low density to the surface of a CM5 sensor chip (Cytivia) by amine coupling, using the manufacturer's recommended protocol. Candidate antibodies are subsequently passed across the chip surface at a range of concentrations and affinity determined using the dedicated software (Biacore Insight Evaluation Software).

[3] = target: T1, canine OX40L, full length membrane …; assay: cell binding (flow cytometry on cells expressing OX40L; cell line not given)
Experimental: as §1

[4] = target: T2, OX40L ECD-TNCc-HIS protein (trimeric …); assay: SPR exp 1, Biacore 8K, OX40L ECD-TNCc-HIS amine coupled to CM5 chip, antibody as analyte, Kd at equilibrium
Description: as §2

[5] = target: T1, canine OX40L, full length membrane …; assay: flow cytometry titration on MEF cells expressing OX40L; Kd (EC50) from GeoMean vs concentration, Prism four parameter fit
Experimental: FIG. 11. Affinity determination for antibodies that bind OX40L on MEF cells expressing OX40L. Graphs are generated by plotting GeoMean arbitrary units (AU) against Log₁₀ [concentration]. Kd (EC₅₀) was calculated using Prism.
as §1

Binder	Kd [1] [nM]	Kd [2] [nM]	Kd [3] [nM]	Kd [4] [nM]	Kd [5] [nM]
PMX012 (antibody, V domains shown, Canine variable regions from Ky9 mice; human kappa or canine kappa/lambda light constant) VH: EVQLVESGGDLVKPGGSLRLACVTSGFTFSSYHMNWVRQAPGKGLQWVAYINTGGTVTTYADAMNADAVRGRFTISRDNVKNTLYLQMNRLRAEDTAVYYCARGYGVFDYWGQGTLVTVSP VL: SYVLTQLPSKNVTLKQPAHITCGGDNIGSKSVHWYQQKLGQAPVLIIYYDSRRPTGIPERFSGANSGNTATLTISGALAEDEADYYCQVWDNSDRASWVFGEGTQLTVL	3	14.8	37	14.8	–
PMX014 (antibody, V domains shown, Canine variable regions) VH: EVQLVESGGDLVKPGGSLRLSCVASGFTFSNFHMSWVRQAPGKGLQWVAYINSGGFNINYEDAVRGRFTISRDNAKNTLYLQMNSLRAEDTAIYYCARDWDTHLDTNWFYYWGQGTLVTVSS VL: SYVLTQLPSKNVTLKQSAHITCRGDNIGSKSVHWYQQKLGQAPVLIIYYDSSRPTGIPERFSGANSGNTATLTISGALAEDEADYYCQVWDISAKASVFGGGTHLTVL	5.12	6.61	74.6	19.7	1.11
